pEC50: −log10 of the molar value.
Columns and labels:
FcRεI = target: T1, FcRεI (Mus musculus, UniProt P20489); experiment: IgE binding to FcRεI on peritoneal mast cells (specificity control); details: 1000 nM chemerin
T1 construct: endogenous in cells; host or cells: mouse peritoneal mast cells
T1 sequence (P20489 24-250): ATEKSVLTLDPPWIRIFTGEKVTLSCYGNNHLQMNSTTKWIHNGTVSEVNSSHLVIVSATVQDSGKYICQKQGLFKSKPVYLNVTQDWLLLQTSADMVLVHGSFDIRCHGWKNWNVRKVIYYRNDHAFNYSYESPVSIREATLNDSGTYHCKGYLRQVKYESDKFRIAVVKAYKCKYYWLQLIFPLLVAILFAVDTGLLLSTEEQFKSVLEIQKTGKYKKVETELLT
T1 sequence (P20490 1-235 partner): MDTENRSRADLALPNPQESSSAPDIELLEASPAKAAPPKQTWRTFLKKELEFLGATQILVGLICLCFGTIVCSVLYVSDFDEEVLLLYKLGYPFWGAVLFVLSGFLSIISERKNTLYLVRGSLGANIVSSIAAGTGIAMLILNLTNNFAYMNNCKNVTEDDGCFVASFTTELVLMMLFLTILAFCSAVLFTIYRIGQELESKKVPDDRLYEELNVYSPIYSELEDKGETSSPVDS
T1 sequence (P20491 19-86 partner): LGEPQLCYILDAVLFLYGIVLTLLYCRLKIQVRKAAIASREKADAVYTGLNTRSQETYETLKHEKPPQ

mCCRL2 [1] = target: T2, mCCRL2 (Mus musculus, UniProt O35457); experiment: immunofluorescence-based chemerin-binding assay, mCCRL2-HA L1.2; details: read-out: EC50, untagged chemerin vs His8-tagged chemerin binding; 10 nM His8-tagged serum form chemerin, 30 min on ice, anti-His6 PE
T2 construct: The coding regions of mCCRL2, huCCRL2, mCRTH2, and huCCR10 were amplified from genomic DNA; expressed in transfected cells
T2 sequence (O35457 1-360): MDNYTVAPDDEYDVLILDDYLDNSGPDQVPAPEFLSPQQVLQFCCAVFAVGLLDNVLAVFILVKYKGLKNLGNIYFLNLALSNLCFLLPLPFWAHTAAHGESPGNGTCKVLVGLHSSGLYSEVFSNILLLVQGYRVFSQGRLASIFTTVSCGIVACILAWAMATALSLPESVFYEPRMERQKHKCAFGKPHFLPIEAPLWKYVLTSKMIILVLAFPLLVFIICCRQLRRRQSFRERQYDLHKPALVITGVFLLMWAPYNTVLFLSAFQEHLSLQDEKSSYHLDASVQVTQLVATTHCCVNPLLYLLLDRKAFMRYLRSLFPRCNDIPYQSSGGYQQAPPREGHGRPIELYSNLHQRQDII

huCCRL2 = target: T3, huCCRL2 (Homo sapiens, UniProt O00421); experiment: receptor internalization assay, huCCRL2-HA L1.2; format: cell-based; details: 100 nM chemerin, 15 min
T3 construct: The coding regions of mCCRL2, huCCRL2, mCRTH2, and huCCR10 were amplified from genomic DNA; expressed in transfected cells
T3 sequence (O00421 1-344): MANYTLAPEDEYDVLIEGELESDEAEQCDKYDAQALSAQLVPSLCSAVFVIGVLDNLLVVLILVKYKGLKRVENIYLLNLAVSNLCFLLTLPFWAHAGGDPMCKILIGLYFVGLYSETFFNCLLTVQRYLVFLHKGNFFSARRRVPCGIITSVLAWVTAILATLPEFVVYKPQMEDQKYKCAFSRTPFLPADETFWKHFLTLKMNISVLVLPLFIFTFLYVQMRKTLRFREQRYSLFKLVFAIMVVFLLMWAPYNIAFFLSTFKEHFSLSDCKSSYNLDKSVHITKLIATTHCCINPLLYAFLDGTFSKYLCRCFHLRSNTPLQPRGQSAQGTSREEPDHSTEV
Protocol: The cells were then washed with 200 μl PBS and stained with mouse anti-HA (Covance, Inc) or mIgG1 isotype control, followed by staining with secondary anti-mouse IgG1 PE, fixed, and analyzed by flow cytometry.

mCCRL2 [2] = target: T2, mCCRL2; experiment: intracellular calcium mobilization, mCCRL2/L1.2 transfectants; format: cell-based; details: Fluo-4; CXCL12 acts via endogenous CXCR4
Protocol: Chemoattractant-stimulated Ca^2+-mobilization was performed following Alliance for Cell Signaling protocol ID PP00000210. Cells (3×10^6/mL) were loaded with 4 μM Fluo4-AM and 0.16% Pluronic acid F-127 (Molecular Probes) in modified Iscove's medium (Iscove's medium with 1% heat inactivated bovine calf serum and 2 mM L-glutamine, Invitrogen) for 30 minutes at 37° C. The samples were mixed every 10 minutes during loading, washed once, resuspended at up to 2×10^6/mL in the same buffer, and allowed to rest in the dark for 30 minutes at room temperature. Chemoattractant-stimulated change in Ca^2+-sensitive fluorescence of Fluo-4 was measured over real-time with a FACsScan flow cytometer and CellQuest software (BD Biosciences) at room temperature under constant stirring (500 rpm). Fluorescent data were acquired continuously up to 1024 seconds at 1-second intervals. The samples were analyzed for 45 seconds to establish basal state, removed from the nozzle to add the stimuli, and then returned to the nozzle. Mean channel fluorescence over time was analyzed with FlowJo (TreeStar, Ashland, Oreg., USA) software. […] 500 μl of these chemerin-loaded cells were added to mCMKLR1/L1.2 cells loaded with Fluo4-AM, and calcium mobilization was evaluated.

[3] = tested on: mouse peritoneal mast cells; experiment: in vitro transwell chemotaxis, peritoneal mast cells; format: cell-based; details: SSChigh CD11b- c-kit+ cells
Protocol: (§1) For migration experiments using cell lines, 2.5×10^5 cells/100 μl chemotaxis media (RPMI+10% fetal calf serum) were added to the top wells of 5-um pore transwell inserts (Costar, Corning, N.Y., USA), and test samples in 600 μl media were added to the bottom wells. After incubating the transwell plates for 1.5 hours at 37° C., the bottom wells were harvested and flow cytometry was used to assess migration. For primary cell chemotaxis, 1×10^6 cells/100 μl were added to the top well, and, following a 2 hour incubation at 37° C., polystyrene beads (15.0 μm diameter, Polysciences, Warrington, Pa., USA) were added to each well to facilitate normalization of the cell count. The cells were then stained for c-kit, F4/80, and/or CD11b expression and analyzed by flow cytometry. A ratio was generated and percent input migration was calculated.

mCCRL2 [4] = target: T2, mCCRL2; experiment: in vitro transwell chemotaxis, mCCRL2/L1.2 transfectants; format: cell-based
Protocol: as §1

mCCRL2 [5] = target: T2, mCCRL2; experiment: chemerin internalization assay, mCCRL2-HA/L1.2 cells; format: cell-based; details: 10 nM His8-tagged serum form chemerin
Protocol: The primary cells were also stained with F4/80 and c-kit mAbs. Secondary anti-His6 PE was added to the cells and incubated for 30 minutes on ice. […] The cells were incubated for 5 minutes on ice with either PBS or acid wash buffer (0.2 M acetic acid, 0.5 M NaCl), and then analyzed by flow cytometry. Mast cells were identified by gating on SSC^high F4/80^− c-kit^+ cells.

## chemerin: protein ligand for signaling receptor CMKLR1; serum form human chemerin expressed in baculovirus-infected insect cells, His8-tag removed
FcRεI
  binding of IgE to FcRεI: unaffected
mCCRL2 [1]
  pEC50: 7.35
huCCRL2
  ligand-induced receptor internalization: failed to internalize
mCCRL2 [2]
  intracellular calcium mobilization: failed to trigger
[3]
  transwell migration: failed to migrate
mCCRL2 [4]; CCL2 with chemerin
  synergy of CCL2 and chemerin in transwell migration: did not synergize
mCCRL2 [4]; range of doses, CXCL12 and CCL19 act via endogenous CXCR4 and CCR7
  transwell migration: neither human nor mouse CCRL2-HA/L1.2 transfectants migrated
mCCRL2 [5]; 5 min at 37° C.
  acid resistant cell-associated chemerin: essentially no
mCCRL2 [5]; 60 min at 37° C.
  acid resistant cell-associated chemerin: very little
